Reference: patent publication US9393284B2, “Visfatin therapeutic agents for the treatment of acne and other conditions” (ARAVA BIO-TECH LTD., priority 2009, dated 2016)

Tests used:
[1] = test system: sebaceous glands; assay: Number of sebocytes in sebaceous glands of adult BalbC mice after topical or intradermal visfatin (H&E staining); format: in vivo, Mus musculus; conditions: 0.01 μg/ml, 200 μL once daily for 4 days
Method: Preparation of Paraffin Embedded Skin Sections: Skin biopsies were performed on study mice. Skin biopsy samples were fixed in 4% paraformaldehyde then dehydrated with increasing concentrations of ethanol (50-100%). Dehydrated biopsy samples were immersed twice in xylene, then once in a 1:1 solution of paraffin and xylene and finally three times in pure melted paraffin at a temperature of 60° C. Paraffin blocks were then sectioned with a microtome and the resulting sections were mounted on slides.
Hematoxylin & Eosin Staining: Paraffin embedded skin biopsy section slides were incubated at 60° C. for 60 minutes and deparaffinized by washing the slides twice with toluene (100%) for 10 minutes and rehydrating the skin biopsy section slides in decreasing concentration of ethanol (100-50%) for 5 minutes each. The slides then were stained with a ready to use solution of hematoxylin for 5 minutes, rinsed with water, stained with eosin (0.5% in double distilled water) for 1.5 minutes and washed twice by rapid immersion in 70% ethanol. […]
Skin samples were fixed in 4% paraformaldehyde and paraffin embedded. The number of cells with the bubbled shaped morphology characteristic of sebocytes were then counted and calculated as a percentage of the number of total cells in each sebaceous gland by microscopic examination at a magnification of 40× using a Nikon Eclipse 50i microscope. […]

[2] = test system: sebaceous glands; assay: Maturation and sebum accumulation of sebaceous glands in newborn BalbC mice treated with visfatin (Oil Red O, H&E); format: in vivo, Mus musculus
Method: Preparation of Frozen Skin Sections: Skin biopsies were embedded in optimum cutting temperature compound (OCT) and immediately sectioned by cryostat-microtome and mounted on slides.
Hematoxylin & Eosin Staining: Paraffin embedded skin biopsy section slides were incubated at 60° C. for 60 minutes and deparaffinized by washing the slides twice with toluene (100%) for 10 minutes and rehydrating the skin biopsy section slides in decreasing concentration of ethanol (100-50%) for 5 minutes each. The slides then were stained with a ready to use solution of hematoxylin for 5 minutes, rinsed with water, stained with eosin (0.5% in double distilled water) for 1.5 minutes and washed twice by rapid immersion in 70% ethanol. Thereafter, the slides were dehydrated by washing once with 95% ethanol for 5 minutes, twice with 100% ethanol for 5 minutes and twice with xylene (100%) for 10 minutes. This was followed by the application of ENTELLAN™ (Merck KGaA, Darmstadt, Germany) and the mounting of coverslips.
Oil Red O Staining: Frozen skin biopsy section slides were fixed in 1% neutral-buffered formalin for 5 minutes, washed in deionized water, and incubated in 60% isopropanol for 5 minutes. […]

B1: visfatin: recombinant Mus musculus visfatin (Enzo Life Sciences), in PBS, topical or intradermal solution (protein, UniProt Q99KQ4 1-491, looked up)
Nicotinamide …: MNAAAEAEFNILLATDSYKVTHYKQYPPNTSKVYSYFECREKKTENSKVRKVKYEETVFYGLQYILNKYLKGKVVTKEKIQEAKEVYREHFQDDVFNERGWNYILEKYDGHLPIEVKAVPEGSVIPRGNVLFTVENTDPECYWLTNWIETILVQSWYPITVATNSREQKKILAKYLLETSGNLDGLEYKLHDFGYRGVSSQETAGIGASAHLVNFKGTDTVAGIALIKKYYGTKDPVPGYSVPAAEHSTITAWGKDHEKDAFEHIVTQFSSVPVSVVSDSYDIYNACEKIWGEDLRHLIVSRSTEAPLIIRPDSGNPLDTVLKVLDILGKKFPVTENSKGYKLLPPYLRVIQGDGVDINTLQEIVEGMKQKKWSIENVSFGSGGALLQKLTRDLLNCSFKCSYVVTNGLGVNVFKDPVADPNKRSKKGRLSLHRTPAGNFVTLEEGKGDLEEYGHDLLHTVFKNGKVTKSYSFDEVRKNAQLNIEQDVAPH
number of sebocytes present inside the sebaceous glands relative to control mice ([1]; intradermal): increased
number of sebocytes present inside the sebaceous glands relative to control mice ([1]; topical): increased
sebum in sebaceous glands based on Oil Red O staining ([2]; topical visfatin 0.01 μg/ml 100 μL once daily, day 3 after birth): do contain sebum
maturation of sebaceous glands (H&E staining) ([2]; topical visfatin, day 4 after birth): induces the maturation of sebaceous glands
